Source: paper PMC8694081 (Molecular Biology of the Cell, 2021)
Substitutions are numbered along the chain they refer to. Numbers in names are those of the source. Read-outs that look alike come from different tables or passages of the source. One block for each binder: values may come before it.

Assays:
ubiquitin [1] = target: T1, ubiquitin (UniProt P0CG48 1-76); experiment: NMR titration
ubiquitin [2] = target: T1, ubiquitin; experiment: NMR HSQC peak broadening and PRE
ubiquitin [3] = target: T1, ubiquitin; experiment: NMR HSQC peak broadening and PRE; remark: listed apart in the source

B1: HD-PTP V domain (residues 361-711), wild type (domain or fragment)
chain: VPMAAHEASSLYSEEKAKLLREMMAKIEDKNEVLDQFMDSMQLDPETVDNLDAYSHIPPQLMEKCAALSVRPDTVRNLVQSMQVLSGVFTDVEASLKDIRDLLEEDELLEQKFQEAVGQAGAISITSKAELAEVRREWAKYMEVHEKASFTNSELHRAMNLHVGNLRLLSGPLDQVRAALPTPALSPEDKAVLQNLKRILAKVQEMRDQRVSLEQQLRELIQKDDITASLVTTDHSEMKKLFEEQLKKYDQLKVYLEQNLAAQDRVLCALTEANVQYAAVRRVLSDLDQKWNSTLQTLVASYEAYEDLMKKSQEGRDFYADLESKVAALLERTQSTCQAREAARQQLLDRE
Kd (ubiquitin [1]): ~31 µM

B2: HD-PTP V domain lacking cysteine residues (C425A, C628A, C697A) (domain or fragment)
chain: B1 chain with C65A, C268A, C337A
binding result (ubiquitin [2]): binds

B3: HD-PTP V domain Site1∆ (L371A, E374A, E375A) (domain or fragment)
chain: B1 chain with L11A, E14A, E15A
Kd (ubiquitin [1]): 900 µM

B4: HD-PTP V domain, no-Cys, single cysteine at 368 (A368C), MTSL-labelled (domain or fragment)
chain: B1 chain with A8C, C65A, C268A, C337A
modifications: MTSL spin label on cysteine 368
binding result (ubiquitin [2]): binds

Other lines, results leading:

binding result (ubiquitin [3]): binds
B5: HD-PTP V domain Site2∆ (E388A, D389A), single spin label at residue 368 (domain or fragment)
chain: B1 chain with A8C, E28A, D29A, C65A, C268A, C337A
modifications: MTSL spin label on cysteine 368

binding result (ubiquitin [2]): binds
B6: HD-PTP V domain, no-Cys, S400C, MTSL-labelled (domain or fragment)
chain: B1 chain with S40C, C65A, C268A, C337A
modifications: MTSL spin label on cysteine 400

binding result (ubiquitin [3]): binds
B7: HD-PTP V domain Site2∆ (E388A, D389A), single spin label at residue 400 (S400) (domain or fragment)
chain: B1 chain with E28A, D29A, S40C, C65A, C268A, C337A
modifications: MTSL spin label on cysteine 400
